Measured values published in the DeepSol protein solubility set.

Test: soluble on expression in E. coli; label from the status in PepcDB or PDB records

Sequence | soluble on expression in E. coli
MEYDAFITNQLRGAQNQSSGLTTRYEQMSKIDNLLADKSSSLSGSLQSFFTSLQTLVSNAEDPAARQALIGKAEGLVNQFKTTDQYLRDQDKQVNIAIGSSVAQINNYAKQIANLNDQISRMTGVGAGASPNDLLDQRDQLVSELNKIVGVEVSVQDGGTYNLTMANGYTLVQGSTARQLAAVPSSADPTRTTVAYVDEAAGNIEIPEKLLNTGSLGGLLTFRSQDLDQTRNTLGQLALAFADAFNAQHTKGYDADGNKGKDFFSIGSPVVYSNSNNADKTVSLTAKVVDSTKVQATDYKIVFDGTDWQVTRTADNTTFTATKDADGKLEIDGLKVTVGTGAQKNDSFLLKPVSNAIVDMNVKVTNEAEIAMASESKLDPDVDTGDSDNRNGQALLDLQNSNVVGGNKTFNDAYATLVSDVGNKTSTLKTSSTTQANVVKQLYKQQQSVSGVNLDEEYGNLQR | soluble
GMKPLKEVVGAYLALSDAQRQLVAGEYDEAAANCRRAMEISHTMPPEEAFDHAGFDAFCHAGLAEALAGLRSFDEALHSADKALHYFNRRGELNQDEGKLWISAVYSRALALDGLGRGAEAMPEFKKVVEMIEERKGETPGKERMMEVAIDRIAQLGAS | soluble
MATASHNIDDILQLKDDTGVITVTADNYPLLSRGVPGYFNILYITMRGTNSNGMSCQLCHDFEKTYHAVADVIRSQAPQSLNLFFTVDVNEVPQLVKDLKLQNVPHLVVYPPAESNKQSQFEWKTSPFYQYSLVPENAENTLQFGDFLAKILNISITVPQAFNVQEEFHHHHHHHHHH | soluble
GGRLLGALCVFKDITDAVELAEEVTNLKQVRTMLEAIIQSSDEAISVVDENGIGLLINKAYTKMTGLSEKEVIGKPANTDISEGESMHLKVLETRRPVRGVRMKVGPNEKEVIVNVAPVIVDG | not soluble
MGSDKIHHHHHHMAKVFLKRMNRRISGGHLWIFYNEILKVEGEYENGSVVDVFRPDGSFFGKGYINDNSKIRVRILTWKNEVIDRNFIKNRIESALKRKKKLVKETTAFRVVHSEGDFLPGLIVDLFGDYLVFQITTLGMEKMKDWILDSLVEIFKPKGIYEKSEGTFREKEGLDNREEWVYGKGPELIEFEMNGFKFLADTRGQKTGFFLDQRENARMVMDLAEGKVCLDVFSYTGNFAVHLLKGGAKHVTLVDYSERALEVAREILKLNGFDSSRYDLLPGNAFDILKSFDREGRKYDLVVLDPPSFAKSSSNLESARRGYKEINLRAMRILKKPGVLVTSSCTQIVSEELFREILFDASFDTKTSLTVLRRGGQPPDHPVLMNVPETQYLKFYILQVDKR | not soluble
MTTNEEFIRTQIFGTVFEITNRYNDLNPVGMGAFGLVCSATDTLTSQPVAIKKIMKPFSTAVLAKRTYRELKLLKHLRHENLICLQDIFLSPLEDIYFVTELQGTDLHRLLQTRPLEKQFVQYFLYQILRGLKYVHSAGVIHRDLKPSNILINENCDLKICDFGLARIQDPQMTGYVSTRYYRAPEIMLTWQKYDVEVDIWSAGCIFAEMIEGKPLFPGKDHVHQFSIITDLLGSPPKDVINTICSENTLKFVTSLPHRDPIPFSERFKTVEPDAVDLLEKMLVFDPKKRITAADALAHPYSAPYHDPTDEPVADAKFDWHFNDADLPVDTWRVMMYSEILDFHKIGGSDGQIDISATFDDQVAAATAAAAQAQAQAQAQVQLNMAAHSHNGAGTTGNDHSDIAGGNKVSDHVAANDTITDYGNQAIQYANEFQQ | soluble
MGSDKIHHHHHHMNFQQCRYVEAIANTGSFSEAAKKLYVTQPNLSSSIKELENDLGVQLFIRSNTGARLTDDGYDFLKYAKRILGEADLLKKRYQDNYKKSFTISSHHYDFLAIPLLEIAEKFKKDFQHFHLIETTTKKILESVLNFESDLGILYLNDDNRHILERYFKQHDLAFTPLGDFPTRIFLRKDHPLAQQKVIEKVQLKDYKQVRFRQEISGLNFDEDTLDIPENQSVFYSNDRGTIMNILCGSDAYASGLGIVNSFIKDQIVLIPLKDSKMHTLGFVSNKRKQETDITQQFITAVKNSLRTYERGTQL | not soluble
MSLNQIYQLTKPKFINVKYQEEAIDQENHILIRPNYMAVCHADQRYYQGKRDPKILNKKLPMAMIHESCGTVISDPTGTYEVGQKVVMIPNQSPMQSDEEFYENYMTGTHFLSSGFDGFMREFVSLPKDRVVAYDAIEDTVAAITEFVSVGMHAMNRLLTLAHSKRERIAVIGDGSLAFVVANIINYTLPEAEIVVIGRHWEKLELFSFAKECYITDNIPEDLAFDHAFECCGGDGTGPAINDLIRYIRPQGTILMMGVSEYKVNLNTRDALEKGLILVGSSRSGRIDFENAIQMMEVKKFANRLKNILYLEEPVREIKDIHRVFATDLNTAFKTVFKWEEGHHHHHH | soluble
MGSSHHHHHHSSGRENLYFQGVLGAGCIGGSIALKLKEKHHVTAFDRDEETMKALEENGIETVSKESDLYDTDLLVLALPMSVEERFLKETDFSGKILDVASVKTPFMEIARERGLNFTGGHPMAGNERKGKSGWDREMFDGKIFFLCSLDGKEDGMIENIVKDLGARPLWIDYRIHDEIVAAVSHVQYLISLSARYVGKPFEEYAGPGYLSNTRLSKQNMEMALDMIRYNKENILKYLENARNFLNVLYHLTEKEDFENLKKVIREVI | soluble
MSLELTTQDIQLQQHFANKQAAIQGLAHALTAKGLVAEGYAQGMLNREAQHSTYLGNGIAIPHGTTDTRELVKQTGVTAMHFPQGLDWGDGNLVYVAIGIAAKSDEHLGILKQLTRVLSADGVEQALQQAKTAQQIIAIIKGEAQLTADFDASLIQLQFPASDMVQMSAVAGGLLKNTGCAENEFVADLVTKAPTHLGRGLWLVASDRAVKRTGMSIVTTANHCEYEQQAVKALIAFSVCNDVHQPLLNTITQCVFEQKQDQLLQADVQQLLNLFSGNAEQTIAQRTIAVGTITEETIAAETVAEPDSARAHTATFRIKNSHGLHARPGAMLVAEAKKFESNIRVSNLDGDGQVVNAKSLMKVIALGVKHNHQLQFTAEGPDAEAALQALGVAINAGLGEGHHHHHH | soluble
MGSDKIHHHHHHMTIRINADFSQRIVVQPGDYHWVESPMPGVQRMMLDRVGGETARATSIVRYEPFSEFSPHIHSGGEEFFVLEGVFSDEHQCYGKGSYVRNPIGSSHTPKIGKEGATIFVKLQQFDEKDTEQKVIDTQTQPWFQGLVGGLKVMPLHEFESEHVALVKWAPNTQFTAHQHWGGEEIFVLEGTFHDEHGRYPKGSWLRSPHLSRHSPFTKEEGALIYVKTGHL | not soluble
MSQMAQSLRSQFATDKQVLQKFLNLDQKGMYQALYIWIDGSGENIRAKTRTFDFEPTDPEKLPIWNFDGSSTGQAEGADSDVYLKPVAIYPDPFRQGKNKLVMCETYDNKKKPTATNYRQRCKEVMEKAADQHPWFGMEQEYTLLDIDGHPFGWPKNGFPGPQGPYYCGVGANKVYGRDIVEAHYRACLYAGIQISGTNAEVMPGQWEFQVGPCEGIQMGDQLWVARYLLQRVAEEFGVIASFDCKPIKGDWNGAGCHTNFSTDKMRNPGGIDEIMSAINKLSLVHPQHIAYYDPHGGKDNERRLTGLHETASIDKFSYGVASRASSIRIPRSTDDDGYGYFEDRRPSSNCDPYTVTGALVRTVCLEGAERKLSMMYVPSQAPNITKH | not soluble
MAHHHHHHHRSEQIAAVRRMVEAYNTGKTDDVADYIHPEYMNPGTLEFTSLRGPELFAINVAWVKKTFSEEARLEEVGIEERADWVRARLVLYGRHVGEMVGMAPTGRLFSGEQIHLLHFVDGKIHHHRDWPDYQGTYRQLGEPWPETEHRRP | soluble
MDVGKRLKEVREMYGLSQRELAKRVGLTNSTISMIERDAVSPSISSLKKILEGVSLTVTEFFTLEIPTESQVVFKKDTLVDVGSDGVELHLVGTPQPDSKLAFLIERYQPGSSTGKDMITHIGEEAGTVIEGSIEITVAGRSFKLTKGDSYKFSTSLPHKFKNTSKKVCKIISAHTPPSF | not soluble
MSEFDELKYLTGFGNEHATSDPRVPDALPVGQNSPQKCSHGLYAEQLSGTAFTAPRSQNQRSWLYRIRPSVIHRPFEAMKENDQHWTNNFSSIPPNPNQYRWNPFPLPTKEGVTFVDNLYTVCGGGDVISRTGLAIHQFSCNASMEHTAMYNSDGDFLIVPQQGALEITTEFGRLLVNPQEIAVIPQGIRFSVAVRGPSRGYILEVYGTHFQLPDLGPIGANGLANPRDFEAPVAWFEDLDVEFTIINKYQGSWFQAKQGHSPFDVVGWHGNYVPYKYDLKKFMVINTVSFDHCDPSIFTVLTAPSVKHGTAIADFVIFPPRWGCADNTFRPPYYHRNCMSEYMGLITGCYEAKEGGFKPGGGSLHSMMTPHGPDFNCFEMASNADLKPQRVAEGTMSFMFESSLNMAITNWAVYQNVDKDYYKDWQPLKKHFTMPK | not soluble
MSLDRVEEQRITIPDFQKLVEAQTGSEISMDDFYPASSVRPISDFVAAIEGEPQVTFTCHQHCGTATYIFLEDDKIIPITRFIDVDRFFEVLEKGKDEIEEGGIAAKARVIARSAIELPKTLDKSEAPESVDIKRILTSIFKERSYTALGEFHYNTLLISCMHFMDPWNFDIDRVRRCVIHYALPDGRIVPFCTMNSIHRADVERHFAKPLNESKEGHHHHHH | not soluble
GMAHPPQIRIPATYLRGGTSKGVFFRLEDLPESCRVPGEARDRLFMRVIGSPDPYAAHIDGMGGATSSTSKCVILSKSSQPGHDVDYLYGQVSIDKPFVDWSGNCGNLSTGAGAFALHAGLVDPARIPEDGICEVRIWQANIGKTIIAHVPVSGGQVQETGDFELDGVTFPAAEIVLEFLDPSDDGEDGGAIFPTGNLVDDLEVPGVGTFKATMINAGIPTVFVNAEEIGYRGTELREEINGDPQQLARFERIRVAGALRMGLIKTPEEAATRQHTPKIAFVAPPRDYRTASGKLVAAGDIDLLVRALSMGKLHHAMMGTAAVAIGTAAAIPGTLVNLAAGGGERSAVRFGHPSGTLRVGAEASQANGEWTVTKAIMSRSARILMEGWVRVPGDAF | soluble
GMLKILATQFNGKLQTLTKQEDELFDVVRLLAQALVGQGKVYLDAYGEFEGLYPMLSDGPDQMKRVTKIKDHKTLHAVDRVLIFTPDTERSDLLASLARYDAWHTPYSIITLGDVTETLERSIAPLALKFDKGLLPAEDGSRHGLPSLALGAFLLTHILTQLQEMTEEWE | soluble
MGSDKIHHHHHHMTETTLPPLIQQMLQPGFYPHEVTEPIQLIQTHVSSVLLTGEYAYKLKKPVNFGFLDFSTLEKRQHFCQEELRLNQRGAAELYLEVLPISLVGEQYTLGGTGEAVEYVLKMRQFPQDGLFSELFAQGKLTESHLEELGKVVAQYHAKTETNDYIRSFGEVPQVQAAFDENYQQTEKYIGGPQTQLQFDETKAYTERFFAEKQELFQRRIQNNYIRECHGDLHLRNICLWQDKILLFDCIEFNEPFRFVDVMFDVAYAVMDLDAQQRPDLSNAYLNTYLEQTGDWEGLEVLPIYLNRQSYVRAKVTSFLLDDPSVPATVKEEATKTASTYYKLAWEYTKPKQGKLILMSGLSGSGKSTTAKYLARQLDAIQIRSDAVRKHLGGISLWERGGDDLYTPEMTQKTYARLLNLGTILANQGYTVILDAKYDKQNLRQEAIAQAEKHHLPLQIIHCTAPIEVIQERLIKRTGDIADATVDLLSSQLQQTEPFTDQEKPYVQTWDTTQPPHVIGNR | not soluble
MSLGAYLSQPNTVKCSGDGVGAPRLPLPYGFSAMQGWRVSMEDAHNCIPELDSETAMFSVYDGHGGEEVALYCAKYLPDIIKDQKAYKEGKLQKALEDAFLAIDAKLTTEEVIKELAQIAGRPGMEGKEEPGSDSGTTAVVALIRGKQLIVANAGDSRCVVSEAGKALDMSYDHKPEDEVELARIKNAGGKVTMDGRVNGGLNLSRAIGDHFYKRNKNLPPEEQMISALPDIKVLTLTDDHEFMVIACDGIWNVMSSQEVVDFIQSKISQRDENGELRLLSSIVEELLDQCLAPDTSGDGTGCDNMTCIIICFKPRNTAELQPESGKRKLEEVLSTEGAEEEGHHHHHH | soluble
